Substrate: C[C@H](N)C(=O)O
Assay: purified protein
Conditions: nonoxidized enzyme (no H2O2), amino acid activation, 2 mM ATP, 2 mM PPi, 10 mM MgCl2, pH 7.2, 37 °C

B1: AlaRS (Escherichia coli K-12) (protein)
chain: SKSTAEIRQAFLDFFHSKGHQVVASSSLVPHNDPTLLFTNAGMNQFKDVFLGLDKRNYSRATTSQRCVRAGGKHNDLENVGYTARHHTFFEMLGNFSFGDYFKHDAIQFAWELLTSEKWFALPKERLWVTVYESDDEAYEIWEKEVGIPRERIIRIGDNKGAPYASDNFWQMGDTGPCGPCTEIFYDHGDHIWGGPPGSPEEDGDRYIEIWNIVFMQFNRQADGTMEPLPKPSVDTGMGLERIAAVLQHVNSNYDIDLFRTLIQAVAKVTGATDLSNKSLRVIADHIRSCAFLIADGVMPSNENRGYVLRRIIRRAVRHGNMLGAKETFFYKLVGPLIDVMGSAGEDLKRQQAQVEQVLKTEEEQFARTLERGLALLDEELAKLSGDTLDGETAFRLYDTYGFPVDLTADVCRERNIKVDEAGFEAAMEEQRRRAREASGFGADYNAMIRVDSASEFKGYDHLELNGKVTALFVDGKAVDAINAGQEAVVVLDQTPFYAESGGQVGDKGELKGANFSFAVEDTQKYGQAIGHIGKLAAGSLKVGDAVQADVDEARRARIRLNHSATHLMHAALRQVLGTHVSQKGSLVNDKVLRFDFSHNEAMKPEEIRAVEDLVNTQIRRNLPIETNIMDLEAAKAKGAMALFGEKYDERVRVLSMGDFSTELCGGTHASRTGDIGLFRIISESGTAAGVRRIEAVTGEGAIATVHADSDRLSEVAHLLKGDSNNLADKVRSVLERTRQLEKELQQLKEQAAAQESANLSSKAIDVNGVKLLVSELSGVEPKMLRTMVDDLKNQLGSTIIVLATVVEGKVSLIAGVSKDVTDRVKAGELIGMVAQQVGGKGGGRPDMAQAGGTDAAALPAALASVKGWVSAKLQ
  Km: 329 ± 84.6 µM
  kcat: 16 s⁻¹
  kcat/Km: 48300 M⁻¹ s⁻¹
